Target: BMAL1 acetylated at Lys537 (ectopically expressed together with CLOCK), Q9WTL8
Sequence (Q9WTL8 other isoform, or with tags, fused parts or gaps): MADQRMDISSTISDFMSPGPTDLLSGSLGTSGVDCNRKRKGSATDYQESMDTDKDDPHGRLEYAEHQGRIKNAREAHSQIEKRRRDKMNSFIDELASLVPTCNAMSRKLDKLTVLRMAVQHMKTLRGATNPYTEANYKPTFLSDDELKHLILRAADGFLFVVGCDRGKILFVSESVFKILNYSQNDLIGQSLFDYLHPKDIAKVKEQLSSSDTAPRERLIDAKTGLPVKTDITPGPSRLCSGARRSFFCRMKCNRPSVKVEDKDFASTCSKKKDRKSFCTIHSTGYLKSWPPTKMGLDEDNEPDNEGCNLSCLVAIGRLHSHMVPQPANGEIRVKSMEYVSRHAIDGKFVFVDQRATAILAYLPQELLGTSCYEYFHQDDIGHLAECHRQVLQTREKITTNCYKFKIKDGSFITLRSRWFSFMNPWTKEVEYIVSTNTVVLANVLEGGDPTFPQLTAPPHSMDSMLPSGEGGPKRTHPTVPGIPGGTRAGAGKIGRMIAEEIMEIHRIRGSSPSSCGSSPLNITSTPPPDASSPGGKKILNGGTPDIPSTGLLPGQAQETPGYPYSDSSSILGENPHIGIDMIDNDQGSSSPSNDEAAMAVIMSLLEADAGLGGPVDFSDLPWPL

B1: Recombinant SIRT1 of the SIRT1 Fluorimetric Activity Assay/Drug Discovery Kit (AK-555; BIOMOL International) (protein)
chain: MADEAALALQPGGSPSAAGADREAASSPAGEPLRKRPRRDGPGLERSPGEPGGAAPEREVPAAARGCPGAAAAALWREAEAEAAAAGGEQEAQATAAAGEGDNGPGLQGPSREPPLADNLYDEDDDDEGEEEEEAAAAAIGYRDNLLFGDEIITNGFHSCESDEEDRASHASSSDWTPRPRIGPYTFVQQHLMIGTDPRTILKDLLPETIPPPELDDMTLWQIVINILSEPPKRKKRKDINTIEDAVKLLQECKKIIVLTGAGVSVSCGIPDFRSRDGIYARLAVDFPDLPDPQAMFDIEYFRKDPRPFFKFAKEIYPGQFQPSLCHKFIALSDKEGKLLRNYTQNIDTLEQVAGIQRIIQCHGSFATASCLICKYKVDCEAVRGDIFNQVVPRCPRCPADEPLAIMKPEIVFFGENLPEQFHRAMKYDKDEVDLLIVIGSSLKVRPVALIPSSIPHEVPQILINREPLPHLHFDVELLGDCDVIINELCHRLGGEYAKLCCNPVKLSEITEKPPRTQKELAYLSELPPTPLHVSEDSSSPERTSPPDSSVIVTLLDQAAKSNDDLDVSESKGCMEEKPQEVQTSRNVESIAEQMENPDLKNVGSSTGEKNERTSVAGTVRKCWPNRVAKEQISRRLDGNQYLFLPPNRYIFHGAEVYSDSEDDVLSSSSCGSNSDSGTCQSPSLEEPMEDESEIEEFYNGLEDEPDVPERAGGAGFGTDGDDQEAINEAISVKQEVTDMNYPSNKS
in vitro deacetylation assay (immunoprecipitated Ac-BMAL1 with recombinant SIRT1, 5 mM NAD+ or 10 mM NAM, 90 min at 37 C; Western with Ac-BMAL1 antibody): SIRT1 readily deacetylates BMAL1 in an in vitro deacetylation assay
